Assay in all cases: cell-based or functional assay
Test [1] deals with GFP-HTTQ74 reporter construct.
For test [2], the target named is GFP-HTTQ74 reporter construct. The source holds these as a separate data set.
For test [3], the target named is GFP-HTTQ74 reporter construct. The source holds these as a separate data set.
For test [4], the target named is GFP-HTTQ74 reporter construct. The source holds these as a separate data set.
In test [5] the target is GFP-HTTQ74 reporter construct. The source holds these as a separate data set.

Positions count from the first letter of the chain named. In names and notes the source's numbering stands. Read-outs that look alike come from different tables or passages of the source.

B1: Construct 14, JB1(1-108)-2XQBP1 (designed binder)
chain: MGKDYYQTLGLARGASDEEIKRAYRRQALRYHPDKNKEPGAEEKFKEIAEAYDVLSDPRKREIFDRYGEEGLKGSGPSGGSGGGANGTSFSYTFHGDPHAMFAEFFGGDIGGGGSGGGGSGGGGSGGGGSAAASNWKWWPGIFDGLESNWKWWPGIFD
Take B1: the “% Aggregation (relative to Q74 alone), filter trap assay” value (“% Aggregation (relative to Q74 alone)” below) in test [1] is 32%.

B2: Construct 62, DnaJ-QBP1-QBP1 (designed binder)
chain: MAKQDYYEILGVSKTAEEREIRKAYKRLAMKYHPDRNQGDKEAEAKFKEIKEAYEVLTDSQKRAAYDQYGHADIGGGGSGGGGSGGGGSAAASNWKWWPGIFDLEGDYKDDDDKGSRAAASNWKWWPGIFDLE
Turning to B2, in test [2], the “Reduction (%) of protein aggregation” value came out at 15.7%.

B3: Construct 34, JB1-QBP1-QBP1 (1) (designed binder)
chain: MGKDYYQTLGLARGASDEEIKRAYRRQALRYHPDKNKEPGAEEKFKEIAEAYDVLSDPRKREIFDRYGEEGLKGSGGGGSGGGGSGGGGSGGGGSAAASNWKWWPGIFDLEGDYKDDDDKGSRAAASNWKWWPGIFDLE
On to B3, for which, in test [2], the “Reduction (%) of protein aggregation” value is 96.1%. Also, the “Reduction of Aggregation (%), filter trap assay” value in test [3] was determined as 96.3%.

B4: Construct 5, JB1-3XQBP1 (designed binder)
chain: MGKDYYQTLGLARGASDEEIKRAYRRQALRYHPDKNKEPGAEEKFKEIAEAYDVLSDPRKREIFDRYGEEGLKGSGGGGSGGGGSGGGGSGGGGSGSSNWKWWPGIAAASNWKWWPGILESNWKWWPGIFD
For B4, the “% Aggregation (relative to Q74 alone)” value in test [4] came out at 41.1%.

B5: Construct 10, JB1(19-43)-2XQBP1 (designed binder)
chain: MGTGSEFEIKRAYRRQALRYHPDKNKEPGAEEDIGGGGSGGGGSGGGGSGGGGSAAASNWKWWPGIFDGLESNWKWWPGIFD
For B5, the “% Aggregation (relative to Q74 alone)” value in test [1] is 91%.

B6: Construct 61, JC7-QBP1-QBP1 (designed binder)
chain: MDYYKILGVDKNASEDEIKKAYRKRALMHHPDRHSGASAEVQKEEEKKFKEVGEAFTILSDPKKKTRYDSGQDIGGGGSGGGGSGGGGSAAASNWKWWPGIFDLEGDYKDDDDKGSRAAASNWKWWPGIFDLE
Turning to B6, in test [2], the “Reduction (%) of protein aggregation” value turned out to be 89%.

B7: Construct 6, QBP1-JB1-QBP1 (designed binder)
chain: MGKPIPNPLLGLDSTGTGSSNWKWWPGIFDEFMGKDYYQTLGLARGASDEEIKRAYRRQALRYHPDKNKEPGAEEKFKEIAEAYDVLSDPRKREIFDRYGEEGLKGSDIGGGGSGGGGSGGGGSGGGGSAAASNWKWWPGIFDGLE
In the case of B7, the “% Aggregation (relative to Q74 alone)” value in test [4] turned out to be 5.62%.

B8: Construct 12, JB1(1-57)-2XQBP1 (designed binder)
chain: MGKDYYQTLGLARGASDEEIKRAYRRQALRYHPDKNKEPGAEEKFKEIAEAYDVLSDDIGGGGSGGGGSGGGGSGGGGSAAASNWKWWPGIFDGLESNWKWWPGIFD
For B8, in test [1], the “% Aggregation (relative to Q74 alone)” value came out at 40.3%.

B9: Construct 4, JB1-2XQBP1 (designed binder)
chain: MGKDYYQTLGLARGASDEEIKRAYRRQALRYHPDKNKEPGAEEKFKEIAEAYDVLSDPRKREIFDRYGEEGLKGSDIGGGGSGGGGSGGGGSGGGGSAAASNWKWWPGIFDGLESNWKWWPGIFD
With B9, the “% Aggregation (relative to Q74 alone)” value was 24.9% in test [5], 29.7% in test [1] and 9.86% in test [4]. In test [3], the “Reduction of Aggregation (%), filter trap assay” value came out at 24.9%.

B10: Construct 8, JB1(P33Q)-2XQBP1 (designed binder)
chain: B9 chain with P33Q
For B10, the “% Aggregation (relative to Q74 alone)” value in test [1] was 93%.

B11: Construct 59, JB13-QBP1-QBP1 (designed binder)
chain: MGQDYYSVLGITRNSEDAQIKQAYRRLALKHHPLKSNEPSSAEIFRQIAEAYDVLSDPMKRGIYDKFGEEGLKGGDIGGGGSGGGGSGGGGSAAASNWKWWPGIFDLEGDYKDDDDKGSRAAASNWKWWPGIFDLE
Regarding B11, in test [2], the “Reduction (%) of protein aggregation” value was -27%.

B12: Construct 7, QBP1-JB1-2XQBP1 (designed binder)
chain: MGKPIPNPLLGLDSTGTGSSNWKWWPGIFDEFMGKDYYQTLGLARGASDEEIKRAYRRQALRYHPDKNKEPGAEEKFKEIAEAYDVLSDPRKREIFDRYGEEGLKGSDIGGGGSGGGGSGGGGSGGGGSAAASNWKWWPGIFDGLESNWKWWPGIFD
Regarding B12, the “% Aggregation (relative to Q74 alone)” value in test [4] stood at 23%.

B13: Construct 9, JB1(20-31)-2XQBP1 (designed binder)
chain: MGTGSEFIKRAYRRQALRYDIGGGGSGGGGSGGGGSGGGGSAAASNWKWWPGIFDGLESNWKWWPGIFD
Turning to B13, the “% Aggregation (relative to Q74 alone)” value in test [1] turned out to be 91%.

B14: Construct 16, JB1-2XQBP1 (rigid linker) (designed binder)
chain: MGKDYYQTLGLARGASDEEIKRAYRRQALRYHPDKNKEPGAEEKFKEIAEAYDVLSDPRKREIFDRYGEEGLKGSDIEAAAKAAASNWKWWPGIFDGLESNWKWWPGIFD
Consider B14, for which the “% Aggregation (relative to Q74 alone)” value in test [5] was 17.6%.

B15: Construct 15, JB1-2XQBP1 (no flexible linker) (designed binder)
chain: MGKDYYQTLGLARGASDEEIKRAYRRQALRYHPDKNKEPGAEEKFKEIAEAYDVLSDPRKREIFDRYGEEGLKGSDIAAASNWKWWPGIFDGLESNWKWWPGIFD
Consider B15, for which the “% Aggregation (relative to Q74 alone)” value in test [5] amounted to 24.5%.

The values are drawn from patent publication US20230226223A1 (SOLA BIOSCIENCES, published 2023).
